In paper PMC6080891 (The Journal of General Physiology, 2018):

Target: the molecule itself
Assay: native gel or EMSA

B1: UNC-103::GFP (natural protein, C. elegans, UniProt G5EFJ9 1-829, looked up)
chain: MKTAVFGRDSGEPGSPCGAPPSLTFTPPATLVPPTHHHSRSTNRGGVSGTGGGGSGGLQGAPGAGGPRASHSSRRTSRLHNNVSALGVLSLGADVLPEYKLQPTRIHHCTIVHYSPFKAVWDWIILLLVIYTAVFTPYVAAFLLRELQDTAKKSRFTEPLEIVDLIVDIMFIVDIIINFRTTYVNENDEACQVVSDPGKIATHYFKGWFIIDMVAAVPFDLLLVSTNSDETTTLIGLLKTARLLRLVRVARKLDRYSEYGAAVLLLLMATFALIAHWLACIWYAIGSAELSHKEYTWLHQLSKQLAQPYTSTNGTIPTGGPTLKSRYVTSLYFTLSTITSIGFGNVSATTDSEKIFTIIMMILGSLMYASVFGNVSAIIQRLYSGTARYHTEMSRLREFIRFHQIPNPLRQRLEEYFQHAWSYTNGIDMNLVLKGFPDCLQADICLHLNRNLLSGCAAFAGSTPGCLRALSMRFRTTHSPPGDTLVHRGDILTGLYFIARGSVEILNDDNTVMGILGKDDIFGENPLLYDEVGKSSCNVRALTYCDLHKILRDDLLDVLDMYPEFAETFCKNLTITYNLRDDAQSLRKKFDRHKLLRMSSSMNKDRYTTPPDGDHGNAAVRRSAESVSRCDSNPIDRRQSAGSRSSSRCSPPHAALTATRSEATPLLRRSTNHHEEDDALFDDIRAFARGNTVTMSPTVAGNSVSPTTAIHNDGIHSQQLSDRSDDYEERRANMFGRRLESIESQMERMQNKFNSDMETLIKLVKEQSIIRNNGSSNEEPNARYRPNNYISSAIRLPNGGGGGVVDEMRVSRLSSHEPPTPTQETDTIL
stoichiometry N: 4
